# Measurements published in paper PMC6450606, “Purification and biochemical characterization of FrsA protein from Vibrio vulnificus as an esterase” (PLoS ONE, 2019).
# B1: Fermentation-respiration switch protein (FrsA) from Vibrio vulnificus (enzyme, UniProt Q7MN61 1-415, looked up)
# chain: MSEEVSKNLSETLFVKHKQAKETSALTQYMPTSQSLLDEIKEKNGFSWYRNLRRLQWVWQGVDPIEQEQVLARIASSKHSRTDEQWLDTVMGYHSGNWAYEWTRLGMEHQKRAGEMTNEAASEALFSASLCYSIAGYPHLKSDNLAIQAQVLANSAYLEAAKKSKYIIKQLEIPFEKGKITAHLHLTNTDKPHPVVIVSAGLDSLQTDMWRLFRDHLAKHDIAMLTVDMPSVGYSSKYPLTEDYSRLHQAVLNELFSIPYVDHHRVGLIGFRFGGNAMVRLSFLEQEKIKACVILGAPIHDIFASPQKLQQMPKMYLDVLASRLGKSVVDIYSLSGQMAAWSLKVQGFLSSRKTKVPILAMSLEGDPVSPYSDNQMVAFFSTYGKAKKISSKTITQGYEQSLDLAIKWLEDELLR
# notes: FrsA (fermentation-respiration switch protein) of Vibrio vulnificus; theoretical mass ca. 47 kDa; Gene cloned between NdeI and XhoI of pET-28a; also called VvFrsA; recombinant VvFrsA
# Target: the molecule itself
# Experiment: SEC; native mass of purified VvFrsA by size exclusion chromatography, buffer and concentration not told
protein,measurement,value
B1,stoichiometry N,2
